This note sets out measurements from publication doi:10.1101/2023.05.29.542777.

Common to all, as to assay: co-IP
The target of assay [1] is TbTim10-2X-Myc (T. brucei).
Assay [2] concerns the target TbTim10-3X-HA (T. brucei).
Assay [3] addresses TbTim12-3X-HA (T. brucei).
The target of assay [4] is TbTim13-3X-HA (T. brucei).
The target of assay [5] is TbTim8/13-3X-HA (T. brucei).
Another assay deals with TbTim9-3X-HA (T. brucei).

Take TbTim10-3X-HA (natural protein): the percent of the input co-precipitated (% of the input) in assay [1] is 30.

Substance TbTim12-3X-HA (natural protein) displayed a percent of the input co-precipitated (% of the input) in assay [1] of 25.

In turn, TbTim8/13-3X-HA (natural protein) displayed a percent of the input co-precipitated (% of the input) in assay [1] of 45.

Regarding TbTim10-2X-Myc (natural protein), the percent of the input co-precipitated in assay [2], in assay [3] and in assay [4] was less than 10% each time. The percent of the input co-precipitated (% of the input) (in assay [5]; with TbTim9-3X-HA (T. brucei)) was 60 throughout.

Regarding TbTim9-3X-HA (natural protein), the percent of the input co-precipitated (% of the input) in assay [1] was determined as 35.
